{"source": "patent US20140294821", "key": {"[1]": {"tested_on": "rBDD FVIII (recombinant B-domain deleted FVIII lacking Fc moieties)"}, "[2]": {"tested_on": "rFVIIIFc (recombinant B-domain deleted human FVIII-Fc monomer hybrid), drug substance"}, "[3]": {"tested_on": "single chain rFVIIIFc (purified non-processed isoform of rFVIIIFc)"}}}
{"substance": "human α-thrombin", "values": [{"measurement": "loss of SPR response of vWF-bound rBDD FVIII after α-thrombin (double reference-subtracted release phase)", "setting": "[1]", "result": "response falls faster and deeper with rising α-thrombin (0.005 to 20 U/mL): at 20 U/mL to about -415 RU at 120 s at 25 °C and to about -425 RU at 37°C; the lowest concentrations stay within about -60 RU of 0"}, {"measurement": "release rate (RU/s) of rBDD FVIII from immobilized vWF against time, by α-thrombin concentration", "setting": "[1]", "result": "peak release rate grows and comes earlier with rising α-thrombin: uppermost trace (20 U/mL) peaks at about 105 RU/s near 2 s at 25 °C and at about 157 RU/s near 2 s at 37 °C"}, {"measurement": "release rate (RU/s) of rFVIIIFc from immobilized vWF against time, by α-thrombin concentration", "setting": "[2]", "result": "peak release rate grows and comes earlier with rising α-thrombin: uppermost trace (20 U/mL) peaks at about 145 RU/s near 3 s at 25 °C and at about 205 RU/s near 2 s at 37 °C"}, {"measurement": "release rate (RU/s) of SC rFVIIIFc from immobilized vWF against time, by α-thrombin concentration", "setting": "[3]", "result": "peak release rate grows with rising α-thrombin: uppermost trace (20 U/mL) peaks at about 112 RU/s near 3 s at 37°C; the 25 °C panel as drawn peaks at about 145 RU/s near 3 s and looks the same as the rFVIIIFc 25 °C panel, which does not agree with Figure 16E (about 82 RU/s at 20 U/mL)"}]}
{"substance": "activated Factor IX", "values": [{"measurement": "FXa generation rate (nM/min) against FIXa concentration (Xase complex on phospholipid vesicles)", "setting": "[1]", "result": "BDD FVIII (triangles, solid Kd fits, two runs): rate rises from about 0.2 nM/min at about 0.25 nM FIXa to about 2.5 to 2.7 nM/min at about 5.6 nM, points at 8 nM about 2.0 to 2.1; the fits still rise at 8 nM (about 2.5 to 2.6), no upper plateau in the range shown"}, {"measurement": "Km (nM) (called Kd in the text) of FXa generation rate as a function of FIXa concentration (thrombin-activated FVIII, 25% PS-75% PC vesicles)", "setting": "[1]", "result": 2.5, "unit": "nM"}, {"measurement": "Vmax (nM/min) of FXa generation rate as a function of FIXa concentration", "setting": "[1]", "result": 4, "unit": "nM/min"}, {"measurement": "FXa generation rate (nM/min) against FIXa concentration (Xase complex on phospholipid vesicles)", "setting": "[2]", "result": "FVIIIFc (circles, dashed Kd fits, two runs): rate rises from about 0.2 nM/min at about 0.25 nM FIXa to about 2.8 to 3.2 nM/min at 4 to 8 nM; the fits still rise at 8 nM (about 3.3), no upper plateau in the range shown"}]}
{"substance": "activated protein C", "values": [{"measurement": "FXa generation rate after thrombin activation and incubation with APC", "setting": "[1]", "result": "Treatment with APC for 90 min led to a significant decrease in FXa generation rates, similar to non-activated samples, and these results were similar for rFVIIIFc DS, rBDD FVIII, and single chain rFVIIIFc"}, {"measurement": "FXa generation rate after thrombin activation and incubation with APC", "setting": "[2]", "result": "Treatment with APC for 90 min led to a significant decrease in FXa generation rates, similar to non-activated samples, and these results were similar for rFVIIIFc DS, rBDD FVIII, and single chain rFVIIIFc"}, {"measurement": "FXa generation rate after thrombin activation and incubation with APC", "setting": "[3]", "result": "Treatment with APC for 90 min led to a significant decrease in FXa generation rates, similar to non-activated samples, and these results were similar for rFVIIIFc DS, rBDD FVIII, and single chain rFVIIIFc"}]}
